Data set [1] concerns the target T1, PacI (R.PacI) restriction endonuclease (Pseudomonas alcaligenes, UniProt D5MNX7 1-142).
T1 sequence: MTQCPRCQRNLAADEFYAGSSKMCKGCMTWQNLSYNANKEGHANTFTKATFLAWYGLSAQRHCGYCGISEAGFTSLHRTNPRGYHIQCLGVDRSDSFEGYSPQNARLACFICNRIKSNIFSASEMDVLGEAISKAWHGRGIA
The data set is described as follows: X-ray crystallography.

The target in data set [2] is T1, PacI (R.PacI) restriction endonuclease. As to the kind of experiment: X-ray crystallography. This is another data set of the same source.

Where two headings read alike, the source gives them in different places.

B1: 18 bp PacI cognate duplex (uncleaved) (dsDNA)
DNA 1: GAGGCTTAATTAAGCCGC
DNA 2: GCGGCTTAATTAAGCCTC
Regarding B1, in data set [1], the binding result is “binds”.

B2: 18 bp PacI cognate duplex, cleaved product (dsDNA)
DNA 1: GAGGCTTAAT
DNA 2: TAAGCCGC
DNA 3: GCGGCTTAAT
DNA 4: TAAGCCTC
modifications: 5' phosphate at the cleaved ends
With B2, the binding result in data set [2] was “binds”.

Source of the values: article PMC2886031.
